This is an account of results in patent US6066485A, “Growth factor inducible serine/threonine phosphatase fin13” (New York University, priority 1997, dated 2000).

The test system of one data set is HeLa cells. The experiment in a line: BrdU incorporation in transiently transfected HeLa cells. In kind it is cell-based, human. Particulars: summary of Table 1. The method, then: Bromodeoxyuridine (BrdU) incorporation. The effect of FIN13 expression on BrdU incorporation was determined in HeLa cells growing asynchronously in DMEM/10% calf serum. Cells were plated at 10000 cells/ml on coverslips and after 24 h were transfected with 10 μg of either pRKERK2-HA, CMVβ or pRKFIN13. Twenty four hours after transfection the medium was changed and the cells were incubated with BrdU labelling reagent (10 μl) for a further 12 h according to the suppliers instructions (Boehringer Mannheim). Following labelling, coverslips were rinsed in PBS and cells were fixed in 70% ethanol-50 mM glycine (pH 2.0) overnight at -20° C. Incorporated BrdU was detected with FITC-conjugated anti-BrdU (Boehringer Mannheim) by immunocytochemistry (see below).
Immunocytocliemistry. Fixed cells on coverslips were washed twice in PBS and twice in PBS/0.02% BSA followed by incubation with the primary antibody diluted in PBS/0.02% BSA for 1 hour at 37° C. (anti-FIN13 polyclonal serum at 1:200, anti-HA monoclonal antibody 12CA5 acities at 1:200 or anti-β-galactosidase GAL40 monoclonal antibody at 1:500). After washing, coverslips were incubated in secondary antibody as above (anti-rabbit Texas red at 1:200, anti-mouse Texas red at 1:200)(Molecular Probes). The coverslips were washed again and then incubated in […] (1:500) FITC-conjugated anti-BrdU (Boehringer Mannheim) as above. Where noted, cells were also stained with 1 μg/ml bis-benzimide (Hoechst #33342) in PBS. Coverslips were mounted and examined using a fluorescence microscope.
Cells Transiently Transfected with FIN13 are Blocked in the Cell Cycle. We have utilized a transient transfection approach to examine the effect of FIN13 expression on DNA synthesis and cell cycle progression. […] ERK2 is expressed as a nuclear protein in HeLa cells in the presence of 10% serum (Chen et al., Mol. Cell. Biol. 12:915-927 (1992)) while β-galactosidase is predominantly cytoplasmic. […] BrdU incorporation was detected using FITC-conjugated anti-BrdU antibodies.

The next data set deals with T1, his-FIN13 (Mus musculus, UniProt Q61074).
T1 construct: Purified his-tagged full length FIN13 (his-FIN13); made in house; host or cells: E. coli BL21(DE3)
T1 sequence (Q61074 151-542 limits assumed): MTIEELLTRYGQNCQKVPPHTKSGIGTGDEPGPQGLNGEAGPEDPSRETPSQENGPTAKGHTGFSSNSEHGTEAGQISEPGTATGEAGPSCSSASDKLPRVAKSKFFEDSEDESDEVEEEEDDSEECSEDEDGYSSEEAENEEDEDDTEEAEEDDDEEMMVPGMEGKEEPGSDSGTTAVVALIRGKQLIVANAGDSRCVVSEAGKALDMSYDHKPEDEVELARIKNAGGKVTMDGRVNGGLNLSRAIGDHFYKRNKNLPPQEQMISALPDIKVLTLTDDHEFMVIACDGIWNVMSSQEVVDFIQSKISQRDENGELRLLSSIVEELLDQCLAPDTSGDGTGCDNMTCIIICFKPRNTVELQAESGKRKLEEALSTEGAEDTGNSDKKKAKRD
The experiment in a line: Phosphatase assay of bacterially expressed his-FIN13 with 32P-labelled casein. Particulars: for effect on his-FIN13 phosphatase activity: 20 μg/ml, 20 mg/ml in FIG. 5 legend. Type of data set: biochemical. The method, then: FIG. 5. Phosphatase activity of bacterially expressed FIN13. Purified his-tagged full length FIN13 (his-FIN13) or his-tagged catalytic domain FIN13 (his-FIN13-cat) were examined for their ability to dephosphorylate ^32 P-labelled cascin in vitro as described in the Materials and Methods. Phosphatase assays were performed in the absence of his-FIN13 (No FIN13; open bar) or with his-FIN13 incubated in the presence of 10 mM of the indicated divalent cation (MgCl2, ZnCl2, CaCl2 or MnCl2)(solid bars) or in the presence of the indicated mM concentrations of MnCl2 (half-tone bars). +EDTA: indicates his-FIN13 incubated in the presence of 10 mM EDTA and 10 mM MnCl2. his-FIN13-cat was incubated in the presence of the indicated mM concentrations of MnCl2 (cross-hatched bars). his-FIN13 was also incubated in the presence of 1 μM okadaic acid (OA), 20 mg/ml poly L-lysine (PL-L), 20 mg/ml protamine sulfate (PS). All incubations were performed for 1 h at 30° C.
Preparation of ^32 P-labelled casein. Casein (10 mg)(Sigma) was labelled with ^32 P using 10U of the catalytic subunit of cAMP dependent protein kinase (Sigma) in 50 mM Tris-HCl pH 7.0, 0.1 mM EGTA, 10 mM Mg-acetate, 0.1% β-mercaptoethanol, and 0.5 mCi of ^32 PγATP for 12 h at 30° C. The reaction mixture was then precipitated at 4° C. in 20% TCA. Labelled casein was recovered by centrifugation, the pellet washed 5 times in 100% acetone and resuspended in 50 mM Tris-HCl, 0.1 mM EGTA.
Phosphatase assay. The phosphatase activity of purified FIN13 expressed in bacteria as a fusion protein with N- and C-terminal his-tags was assessed in vitro using ^32 P-labelled casein as a substrate. For preparation of his-FIN13 and his-FIN13-cat from bacteria, the BL21(DE3) strain transformed with pEThis-FIN13 or pEThis-FIN13-cat were induced with 0.2 mM IPTG for 2 h following which the cells were recovered by centrifugation, resuspended in column buffer (50 mM sodium phosphate, pH 8.0, 300 mM NaCl, 1 mM PMSF) and frozen overnight at -70° C. The bacteria were then lysed by sonication at 4° C. and the extract cleared by centrifugation. The supernatant was then adsorbed to Ni-NTA-agarose (Qiagen) at 4° C. for 1 h. The resin was then washed extensively in column buffer without PMSF and his-FIN13 or his-FIN13-cat were eluted using 25 mM Tris-HCl pH 7.2, 100 mM NaCl containing […] imidazole (Sigma). In addition, the phosphatase activity of FIN13 expressed in HeLa cells was also determined in an immune complex using ^32 P-labelled casein as a substrate. For preparation of immune complexes of myc-FIN13, HeLa cells were transfected with […] of pRKmyc-FIN13 or pRK5. Cells were lysed 24 h after transfection in lysis buffer (10 mM Na-phosphate pH 7.4, 100 mM NaCl, 1% TRITON X-100, 10 mM EDTA) also containing a protease/phosphatase inhibitor cocktail (1 mM PMSF, 1 μg/ml pepstatin, 1 μg/ml leupeptin, 1 μg/ml aprotinin, 10 mM Na-orthovanadate, 80 mM NaF, 80 mM β-glycerolphosphate, 10 μM okadaic acid). Cleared lysates (100 μg total protein) were immunoprecipitated with anti-myc monoclonal antibody (9E10) adsorbed to 30 μl protein G sepharose (Zymed) or anti-FIN13 antiserum adsorbed to 30 μl protein A sepharose (Zymed) for 1.5 h at 4° C. The anti-FIN13 polyclonal antiserum (630) was generated against the full length his-FIN13 expressed and purified from bacteria. The IPs were then washed 5 times with lysis buffer, once with 10 mM Tris-HCl pH 7.0, 100 mM NaCl and 5 mM MnCl2, and twice with phosphatase reaction buffer (10 mM Tris-HCl pH 7.0, 0.1 mM EGTA, 10 mM DTT and 10 mM MnCl2) containing 1 μM okadaic acid. Purified his-FIN13, his-FIN13-cat or myc-lPs were then examined for phosphatase activity by incubating the indicated FIN13 preparation in the presence of phosphatase reaction buffer containing ^32 P-labelled casein (1×10^5 cpm; approx. 1 μl) at 30° C. for up to 2 h.

As to “ERK2-HA: control nuclear protein ERK2 expressed in HeLa cells”, the “cells expressing the protein observed to incorporate BrdU” value (“cells expressing the protein observed” for short) in the data set on HeLa cells was “greater than 70%”.

With poly L-lysine, on his-FIN13, the “effect on his-FIN13 phosphatase activity” value is listed as “Neither poly L-lysine nor protamine sulfate significantly altered”.

As to protamine sulfate, the “effect on his-FIN13 phosphatase activity” value in the data set with his-FIN13 was “Neither poly L-lysine nor protamine sulfate significantly altered”.

With “β-galactosidase: control protein, predominantly cytoplasmic”, in the data set with HeLa cells, the “cells expressing the protein observed” value is given as “greater than 70%”.

B1: his-FIN13-cat: catalytic domain of FIN13 (amino acids 195 to 392) with N- and C-terminal poly(6)-histidine tags (protein)
chain: DSRCVVSEAGKALDMSYDHKPEDEVELARIKNAGGKVTMDGRVNGGLNLSRAIGDHFYKRNKNLPPQEQMISALPDIKVLTLTDDHEFMVIACDGIWNVMSSQEVVDFIQSKISQRDENGELRLLSSIVEELLDQCLAPDTSGDGTGCDNMTCIIICFKPRNTVELQAESGKRKLEEALSTEGAEDTGNSDKKKAKRD
In the case of B1, the figures for the “phosphatase activity of catalytic domain” value with his-FIN13 (10 mM MnCl2) and in the data set with his-FIN13 (400 mM MnCl2) were “poor phosphatase activity” and “detectable”, respectively.

B2: his-FIN13: purified full length FIN13 expressed in bacteria as fusion protein with N- and C-terminal his-tags (protein)
chain: MTIEELLTRYGQNCQKVPPHTKSGIGTGDEPGPQGLNGEAGPEDPSRETPSQENGPTAKGHTGFSSNSEHGTEAGQISEPGTATGEAGPSCSSASDKLPRVAKSKFFEDSEDESDEVEEEEDDSEECSEDEDGYSSEEAENEEDEDDTEEAEEDDDEEMMVPGMEGKEEPGSDSGTTAVVALIRGKQLIVANAGDSRCVVSEAGKALDMSYDHKPEDEVELARIKNAGGKVTMDGRVNGGLNLSRAIGDHFYKRNKNLPPQEQMISALPDIKVLTLTDDHEFMVIACDGIWNVMSSQEVVDFIQSKISQRDENGELRLLSSIVEELLDQCLAPDTSGDGTGCDNMTCIIICFKPRNTVELQAESGKRKLEEALSTEGAEDTGNSDKKKAKRD
Regarding B2, the “MnCl2 concentration giving maximal phosphatase activity” value with his-FIN13 (32P-labelled casein substrate) amounted to 10 mM. Besides, the “phosphatase activity with other divalent cations” value with his-FIN13 (in the presence of MgCl2, ZnCl2 or CaCl2 (10 mM)) is listed as “No activity”. Besides, in the data set with his-FIN13 (in the presence of Mn2+ ions, 30° C.), the “dephosphorylation of 32P-labelled casein” value is “able to dephosphorylate”.

B3: FIN13: novel FGF-inducible type 2C serine/threonine phosphatase (protein)
chain: MTIEELLTRYGQNCQKVPPHTKSGIGTGDEPGPQGLNGEAGPEDPSRETPSQENGPTAKGHTGFSSNSEHGTEAGQISEPGTATGEAGPSCSSASDKLPRVAKSKFFEDSEDESDEVEEEEDDSEECSEDEDGYSSEEAENEEDEDDTEEAEEDDDEEMMVPGMEGKEEPGSDSGTTAVVALIRGKQLIVANAGDSRCVVSEAGKALDMSYDHKPEDEVELARIKNAGGKVTMDGRVNGGLNLSRAIGDHFYKRNKNLPPQEQMISALPDIKVLTLTDDHEFMVIACDGIWNVMSSQEVVDFIQSKISQRDENGELRLLSSIVEELLDQCLAPDTSGDGTGCDNMTCIIICFKPRNTVELQAESGKRKLEEALSTEGAEDTGNSDKKKAKRD
For B3, in the data set on HeLa cells, the “cells expressing the protein observed” value is on record as 10-17%.
